This is an account of results in the supplement of paper PMC5998384.

The test system of data set [1] is HeLa Kyoto. Briefly: solubility in G1/S (NP-40 vs SDS abundance) (log2 ratio); higher = more soluble. The conditions noted are these: cell cycle stage: G1/S.
Data set [2] deals with HeLa Kyoto. As to the kind of experiment: melting temperature (median over replicates), in situ; higher = more thermally stable.
For data set [3], the system named is HeLa Kyoto. Briefly: solubility change mitosis vs G1/S (difference of NP-40 vs SDS log2 ratios) (log2 ratio difference); higher = more soluble in mitosis.
Data set [4] deals with HeLa Kyoto. As to the kind of experiment: thermal stability score vs G1/S (z-score of summed log2 fold changes over temperatures); higher = more thermally stable than in G1/S.
The mark [5] stands for this setting: cell cycle stage: early G1 (4.5 h after nocodazole release).
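For melting temperature (median over replicates), in situ in this document: HeLa Kyoto cells synchronized by double thymidine or nocodazole block, proteins quantified by TMT10plex mass spectrometry, three independent biological replicates.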
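For solubility change mitosis vs G1/S (difference of NP-40 vs SDS log2 ratios) in this document: synchronized HeLa Kyoto cells (double thymidine block for G1/S, nocodazole release for mitosis), protein amounts in NP-40 versus SDS lysates quantified by mass spectrometry, three biological replicates.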
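For solubility in G1/S (NP-40 vs SDS abundance) in this document: HeLa Kyoto cells arrested at G1/S by double thymidine block, proteins quantified by TMT10plex mass spectrometry in mild NP-40 versus SDS extracts, three biological replicates.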
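For thermal stability score vs G1/S (z-score of summed log2 fold changes over temperatures) in this document: synchronized HeLa Kyoto cells, proteins quantified by TMT10plex mass spectrometry, three biological replicates, mitosis taken 0.5 h after nocodazole release, G1/S directly after double thymidine block.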

As to “MWKASAGHAVSIAQDDAGADDWETDPDFVNDVSEKEQRWGAKTVQGSGHQEHINIHKLRENVFQEHQTLKEKELETGPKASHGYGGKFGVEQDRMDKSAVGHEYQSKLSKHCSQVDSVRGFGGKFGVQMDRVDQSAVGFEYQGKTEKHASQKDYSSGFGGKYGVQADRVDKSAVGFDYQGKTEKHESQRDYSKGFGGKYGIDKDKVDKSAVGFEYQGKTEKHESQKDYVKGFGGKFGVQTDRQDKCALGWDHQEKLQLHESQKDYKTGFGGKFGVQSERQDSAAVGFDYKEKLAKHESQQDYSKGFGGKYGVQKDRMDKNASTFEDVTQVSSAYQKTVPVEAVTSKTSNIRANFENLAKEKEQEDRRKAEAERAQRMAKERQEQEEARRKLEEQARAKTQTPPVSPAPQPTEERLPSSPVYEDAASFKAELSYRGPVSGTEPEPVYSMEAADYREASSQQGLAYATEAVYESAEAPGHYPAEDSTYDEYENDLGITAVALYDYQAAGDDEISFDPDDIITNIEMIDDGWWRGVCKGRYGLFPANYVELRQ [CTTN]”, in data set [1], the “solubility in G1/S (log2)” value is -0.21. Moreover, the figures for the melting temperature in data set [2] (cell cycle stage: G1/S) and in data set [2] (cell cycle stage: mitosis) were 60.6 °C and 57.6 °C, respectively. In data set [3], the “solubility change mitosis (log2)” value is -0.0191. Moreover, the thermal stability score in data set [4] (setting [5]) was -3.16; in data set [4] (cell cycle stage: mitosis), -3.35.
Consider “MWLDRRGWLRVLGHWRYDLRRPSFTRTWSGDKGPMAETVSTQVGTEGGLRASHQQNGDAGGDAKVELSPGPPKPAGREVEPAPVGGEHPSAAAPGPGKHKKRRGATRERVVPPPKKRRTGVSFGDEHFAETSYYFEGGLRKVRPYYFDFRTYCKGRWVGHSLLHVFSTEFRAQPLAYYEAAVRAGRLQLNEKPVQDLNIVLKDNDFLRNTVHRHEPPVTAEPIRLLAENEDVVVVDKPSSIPVHPCGRFRHNTVIFILGKEHQLKELHPLHRLDRLTSGVLMFAKTAAVSERIHEQVRDRQLEKEYVCRVEGEFPTEEVTCKEPILVVSYKVGVCRVDPRGKPCETVFQRLSYNGQSSVVRCRPLTGRTHQIRVHLQFLGHPILNDPIYNSVAWGPSRGRGGYIPKTNEELLRDLVAEHQAKQSLDVLDLCEGDLSPGLTDSTAPSSELGKDDLEELAAAAQKMEEVAEAAPQELDTIALASEKAVETDVMNQETDPLCAECRLVRQDPLPQDLVMFLHALRYKGPGFEYFSPMPAWAQDDWQKD [RPUSD2]”, for which the “solubility in G1/S (log2)” value in data set [1] is -0.0296. The melting temperature in data set [2] (cell cycle stage: G1/S) and in data set [2] (cell cycle stage: mitosis) was 54.1 °C in each case. Besides, the “solubility change mitosis (log2)” value in data set [3] amounted to 0.0172. Moreover, the figures for the thermal stability score in data set [4] (setting [5]) and in data set [4] (cell cycle stage: mitosis) were -1.46 and -2.6, respectively.
With “MWLPLVLLLAVLLLAVLCKVYLGLFSGSSPNPFSEDVKRPPAPLVTDKEARKKVLKQAFSANQVPEKLDVVVIGSGFGGLAAAAILAKAGKRVLVLEQHTKAGGCCHTFGKNGLEFDTGIHYIGRMEEGSIGRFILDQITEGQLDWAPLSSPFDIMVLEGPNGRKEYPMYSGEKAYIQGLKEKFPQEEAIIDKYIKLVKVVSSGAPHAILLKFLPLPVVQLLDRCGLLTRFSPFLQASTQSLAEVLQQLGASSELQAVLSYIFPTYGVTPNHSAFSMHALLVNHYMKGGFYPRGGSSEIAFHTIPVIQRAGGAVLTKATVQSVLLDSAGKACGVSVKKGHELVNIYCPIVVSNAGLFNTYEHLLPGNARCLPGVKQQLGTVRPGLGMTSVFICLRGTKEDLHLPSTNYYVYYDTDMDQAMERYVSMPREEAAEHIPLLFFAFPSAKDPTWEDRFPGRSTMIMLIPTAYEWFEEWQAELKGKRGSDYETFKNSFVEASMSVVLKLFPQLEGKVESVTAGSPLTNQFYLAAPRGACYGADHDLGRLHPCVMASLRAQSPIPNLYLTGQDIFTCGLVGALQGALLCSSAILKRNLYSDLKNLDSRIRAQKKKN [RETSAT]”, the “solubility in G1/S (log2)” value in data set [1] is 0.0503. Also, the results for the melting temperature in data set [2] (cell cycle stage: G1/S) and in data set [2] (cell cycle stage: mitosis) were 52.1 °C and 52.2 °C, respectively. The “solubility change mitosis (log2)” value in data set [3] is -0.0973. For the same sequence, the values for the thermal stability score in data set [4] (setting [5]) and in data set [4] (cell cycle stage: mitosis) were 2.89 and 3.75, respectively.
On to “MWLWEDQGGLLGPFSFLLLVLLLVTRSPVNACLLTGSLFVLLRVFSFEPVPSCRALQVLKPRDRISAIAHRGGSHDAPENTLAAIRQAAKNGATGVELDIEFTSDGIPVLMHDNTVDRTTDGTGRLCDLTFEQIRKLNPAANHRLRNDFPDEKIPTLREAVAECLNHNLTIFFDVKGHAHKATEALKKMYMEFPQLYNNSVVCSFLPEVIYKMRQTDRDVITALTHRPWSLSHTGDGKPRYDTFWKHFIFVMMDILLDWSMHNILWYLCGISAFLMQKDFVSPAYLKKWSAKGIQVVGWTVNTFDEKSYYESHLGSSYITDSMVEDCEPHF [GDE1]”, for which the “solubility in G1/S (log2)” value in data set [1] was determined as 0.138. Further, the melting temperature came to 51.5 °C in data set [2] (cell cycle stage: G1/S) and 55.9 °C in data set [2] (cell cycle stage: mitosis). Moreover, in data set [3], the “solubility change mitosis (log2)” value is -0.1. Moreover, the thermal stability score in data set [4] (setting [5]) was 0.685; in data set [4] (cell cycle stage: mitosis) it was -1.42.
Turning to “MWPGNAWRAALFWVPRGRRAQSALAQLRGILEGELEGIRGAGTWKSERVITSRQGPHIRVDGVSGGILNFCANNYLGLSSHPEVIQAGLQALEEFGAGLSSVRFICGTQSIHKNLEAKIARFHQREDAILYPSCYDANAGLFEALLTPEDAVLSDELNHASIIDGIRLCKAHKYRYRHLDMADLEAKLQEAQKHRLRLVATDGAFSMDGDIAPLQEICCLASRYGALVFMDECHATGFLGPTGRGTDELLGVMDQVTIINSTLGKALGGASGGYTTGPGPLVSLLRQRARPYLFSNSLPPAVVGCASKALDLLMGSNTIVQSMAAKTQRFRSKMEAAGFTISGASHPICPVMLGDARLASRMADDMLKRGIFVIGFSYPVVPKGKARIRVQISAVHSEEDIDRCVEAFVEVGRLHGALP [GCAT]”, the “solubility in G1/S (log2)” value in data set [1] was determined as 0.194. Also, the melting temperature in data set [2] (cell cycle stage: G1/S) and in data set [2] (cell cycle stage: mitosis) was 53.3 °C throughout. Further, the “solubility change mitosis (log2)” value in data set [3] is -0.0435. Moreover, the thermal stability score in data set [4] (setting [5]) is -0.218; in data set [4] (cell cycle stage: mitosis), -1.56.
With “MWPQPRLPPRPAMSEETRQSKLAAAKKKLREYQQRNSPGVPTGAKKKKKIKNGSNPETTTSGGCHSPEDTPKDNAATLQPSDDTVLPGGVPSPGASLTSMAASQNHDADNVPNLMDETKTFSSTESLRQLSQQLNGLVCESATCVNGEGPASSANLKDLESRYQQLAVALDSSYVTNKQLNITIEKLKQQNQEITDQLEEEKKECHQKQGALREQLQVHIQTIGILVSEKAELQTALAHTQHAARQKEGESEDLASRLQYSRRRVGELERALSAVSTQQKKADRYNKELTKERDALRLELYKNTQSNEDLKQEKSELEEKLRVLVTEKAGMQLNLEELQKKLEMTELLLQQFSSRCEAPDANQQLQQAMEERAQLEAHLGQVMESVRQLQMERDKYAENLKGESAMWRQRMQQMSEQVHTLREEKECSMSRVQELETSLAELRNQMAEPPPPEPPAGPSEVEQQLQAEAEHLRKELEGLAGQLQAQVQDNEGLSRLNREQEERLLELERAAELWGEQAEARRQILETMQNDRTTISRALSQNRELKEQLAELQSGFVKLTNENMEITSALQSEQHVKRELGKKLGELQEKLSELKETVELKSQEAQSLQQQRDQYLGHLQQYVAAYQQLTSEKEVLHNQLLLQTQLVDQLQQQEAQGKAVAEMARQELQETQERLEAATQQNQQLRAQLSLMAHPGEGDGLDREEEEDEEEEEEEAVAVPQPMPSIPEDLESREAMVAFFNSAVASAEEEQARLRGQLKEQRVRCRRLAHLLASAQKEPEAAAPAPGTGGDSVCGETHRALQGAMEKLQSRFMELMQEKADLKERVEELEHRCIQLSGETDTIGEYIALYQSQRAVLKERHREKEEYISRLAQDKEEMKVKLLELQELVLRLVGDRNEWHGRFLAAAQNPADEPTSGAPAPQELGAANQQGDLCEVSLAGSVEPAQGEAREGSPRDNPTAQQIMQLLREMQNPRERPGLGSNPCIPFFYRADENDEVKITVI [GOLGA2]”, in data set [1], the “solubility in G1/S (log2)” value came out at 0.522. Moreover, the melting temperature in data set [2] (cell cycle stage: G1/S) and in data set [2] (cell cycle stage: mitosis) was 48.9 °C in each case. Besides, the “solubility change mitosis (log2)” value in data set [3] stood at 0.0669. Moreover, the thermal stability score turned out to be 1.74 in data set [4] (setting [5]) and 3.29 in data set [4] (cell cycle stage: mitosis).
